Experimental findings from ChEMBL document CHEMBL1140019, “Primary amides as selective inhibitors of cathepsin K” (Bioorg Med Chem Lett, 2007) are described below.

Holding throughout (conditions): Homo sapiens
Substrate in series [1]: CC(C)C[C@H](N[C@@H](c1ccc(-c2ccc(S(C)(=O)=O)cc2)cc1)C(F)(F)F)C(=O)NCC(N)=O
Briefly: (§1) Activity of humanized rabbit cathepsin K at 25 uM.

Substrate in series [2]: CC(C)C[C@H](N[C@@H](c1ccc(-c2ccc(S(C)(=O)=O)cc2)cc1)C(F)(F)F)C(=O)N[C@@H](C)C(N)=O
The series is described as §1.

Substrate in series [3]: CSCC[C@H](NC(=O)[C@H](CC(C)C)N[C@@H](c1ccc(-c2ccc(S(C)(=O)=O)cc2)cc1)C(F)(F)F)C(N)=O
The series is described as §1.

Substrate in series [4]: Cc1cc(=O)oc2cc(NC(=O)[C@H](CCCN=C(N)N)NC(=O)[C@H](CC(C)C)NC(=O)OCc3ccccc3)ccc12
Described as §1.

Substrate in series [5]: CC(C)C[C@H](N[C@@H](c1ccc(-c2ccc(S(C)(=O)=O)cc2)cc1)C(F)(F)F)C(=O)NCC(N)=O
Kind of series: (§2) Ratio of Kcat to Km for humanized rabbit cathepsin K. On the set-up: unit not given here.

Substrate in series [6]: CC(C)C[C@H](N[C@@H](c1ccc(-c2ccc(S(C)(=O)=O)cc2)cc1)C(F)(F)F)C(=O)N[C@@H](C)C(N)=O
The series is described as §2. Also noted: unit not given here.

Substrate in series [7]: CSCC[C@H](NC(=O)[C@H](CC(C)C)N[C@@H](c1ccc(-c2ccc(S(C)(=O)=O)cc2)cc1)C(F)(F)F)C(N)=O
Described as §2. On the set-up: unit not given here.

Substrate in series [8]: Cc1cc(=O)oc2cc(NC(=O)[C@H](CCCN=C(N)N)NC(=O)[C@H](CC(C)C)NC(=O)OCc3ccccc3)ccc12
The description is as §2. Also noted: unit not given here.

B1: Cathepsin K (Homo sapiens), P43235 (protein)
chain: MWGLKVLLLPVVSFALYPEEILDTHWELWKKTHRKQYNNKVDEISRRLIWEKNLKYISIHNLEASLGVHTYELAMNHLGDMTSEEVVQKMTGLKVPLSHSRSNDTLYIPEWEGRAPDSVDYRKKGYVTPVKNQGQCGSCWAFSSVGALEGQLKKKTGKLLNLSPQNLVDCVSENDGCGGGYMTNAFQYVQKNRGIDSEDAYPYVGQEESCMYNPTGKAAKCRGYREIPEGNEKALKRAVARVGPVSVAIDASLTSFQFYSKGVYYDESCNSDNLNHAVLAVGYGIQKGNKHWIIKNSWGENWGNKGYILMARNKNNACGIANLASFPKM
Broadly, the Km is the substrate concentration at which the rate is half of its maximum. Broadly, the kcat is the number of substrate molecules converted per active site and unit of time at saturation. With B1, the Km worked out at 0.119 µM in series [1], 0.087 µM in series [2] and 2 µM in series [4]. Besides, the kcat in series [1] worked out at 23.2 s⁻¹; in series [2], 23.2 s⁻¹; in series [3], 3.25 s⁻¹; in series [4], 79 s⁻¹. Besides, the kcat/Km stood at 0.19 in series [5], 0.26 in series [6], 0.54 in series [7] and 0.04 in series [8].
